Results as given in US7585638B2, “Test system for measuring the interaction of STAT 6 with NCoA-1” (Boehringer Ingelheim International GmbH, priority 2001, dated 2009).

Key:
[1] = target: T1, interaction of STAT6 and NCoA-1 (Mus musculus, UniProt P70365); test: GST pull-down assay of [35S]-labeled NCoA-1 with GST-STAT6-TAD in presence of peptides; type: binding, human; details: 100 μg peptide; 4 μg GST-STAT6-TAD; SDS-PAGE and fluorography
T1 construct: made in house; host or cells: E. coli for GST-STAT6-TAD
Description: 4 μg GST or GST-STAT6-TAD fusion protein purified from E. coli, are bound to 20 μl glutathione-Sepharose and are incubated with 1.5 μl [^35S]-labeled NCoA-1 in the presence of 100 μg peptide 1, or peptide 2, or peptide 3 respectively, as indicated. Material bound to the glutathione-Sepharose is recovered from the binding reaction, extensively washed and analyzed by SDS-PAGE and fluorography (lanes 2-6). Input control in lane 1 reflects 10% of the total amount of ^35S-labeled NCoA-1 used in the experiments.

[2] = target: T2, GST-STAT6 (aa 677-847) (Homo sapiens, UniProt P42226); test: STAT6/NCoA-1-ELISA (His-NCoA-1 bound to coated GST-STAT6); type: binding; details: 500 ng GST-STAT6 (677-847) coated, 250 ng His-NCoA-1 (212-463) added; α-Penta-His and α-mouse-HRP; average of three experiments
T2 construct: made in house; host or cells: E. coli
Description: The following is an illustration of how an interaction of STAT6 with NCoA-1 can be performed in order to identify a substance which can modulate said interaction.
Substrate solution: dissolve a phosphate citrate buffer tablet (Sigma) in 100 ml water to obtain 0.05 M phosphate citrate buffer pH 5.5. Dissolve a tablet of o-Phenylendiamine dihydrochloride (Sigma) in 30 ml of phosphate citrate buffer in the dark. Prior to use add 30 μl of 30% H2O2. Recombinant Proteins: GST-STAT6 aa 677-847 and His-tagged NCoA-1 aa 212-463 are expressed in E. coli, purified by affinity-chromatografie and dialyzed against 1×PBS according to the art. Sequences of Recombinant Proteins: GST-STAT6 aa 677-847 protein, SEQ ID NO:1 His-tagged NCoA-1 aa 212-463, SEQ ID NO: 3 Antibodies: 1. Antibody: Penta-His, Quiagen (Cat. No. 34660) 2. […] Determine the optical density of each well within 15 minutes, using an ELISA reader set to […]. […]
500 ng of E. coli expressed and affinity purified GST-STAT6 TAD (amino acid, aa 677-847) is coated to 96 well ELISA-plates as indicated. After incubation with 250 ng of E. coli expressed, affinity purified His-NCoA-1 (aa 212-463), bound protein is detected by mouse anti-His-antibody and peroxidase coupled sheep anti-mouse-antibody as indicated. […] Conversion of peroxidase substrate O-phenylenediamine is measured at 492 nm. […]

T1 sequence (P70365 whole entry): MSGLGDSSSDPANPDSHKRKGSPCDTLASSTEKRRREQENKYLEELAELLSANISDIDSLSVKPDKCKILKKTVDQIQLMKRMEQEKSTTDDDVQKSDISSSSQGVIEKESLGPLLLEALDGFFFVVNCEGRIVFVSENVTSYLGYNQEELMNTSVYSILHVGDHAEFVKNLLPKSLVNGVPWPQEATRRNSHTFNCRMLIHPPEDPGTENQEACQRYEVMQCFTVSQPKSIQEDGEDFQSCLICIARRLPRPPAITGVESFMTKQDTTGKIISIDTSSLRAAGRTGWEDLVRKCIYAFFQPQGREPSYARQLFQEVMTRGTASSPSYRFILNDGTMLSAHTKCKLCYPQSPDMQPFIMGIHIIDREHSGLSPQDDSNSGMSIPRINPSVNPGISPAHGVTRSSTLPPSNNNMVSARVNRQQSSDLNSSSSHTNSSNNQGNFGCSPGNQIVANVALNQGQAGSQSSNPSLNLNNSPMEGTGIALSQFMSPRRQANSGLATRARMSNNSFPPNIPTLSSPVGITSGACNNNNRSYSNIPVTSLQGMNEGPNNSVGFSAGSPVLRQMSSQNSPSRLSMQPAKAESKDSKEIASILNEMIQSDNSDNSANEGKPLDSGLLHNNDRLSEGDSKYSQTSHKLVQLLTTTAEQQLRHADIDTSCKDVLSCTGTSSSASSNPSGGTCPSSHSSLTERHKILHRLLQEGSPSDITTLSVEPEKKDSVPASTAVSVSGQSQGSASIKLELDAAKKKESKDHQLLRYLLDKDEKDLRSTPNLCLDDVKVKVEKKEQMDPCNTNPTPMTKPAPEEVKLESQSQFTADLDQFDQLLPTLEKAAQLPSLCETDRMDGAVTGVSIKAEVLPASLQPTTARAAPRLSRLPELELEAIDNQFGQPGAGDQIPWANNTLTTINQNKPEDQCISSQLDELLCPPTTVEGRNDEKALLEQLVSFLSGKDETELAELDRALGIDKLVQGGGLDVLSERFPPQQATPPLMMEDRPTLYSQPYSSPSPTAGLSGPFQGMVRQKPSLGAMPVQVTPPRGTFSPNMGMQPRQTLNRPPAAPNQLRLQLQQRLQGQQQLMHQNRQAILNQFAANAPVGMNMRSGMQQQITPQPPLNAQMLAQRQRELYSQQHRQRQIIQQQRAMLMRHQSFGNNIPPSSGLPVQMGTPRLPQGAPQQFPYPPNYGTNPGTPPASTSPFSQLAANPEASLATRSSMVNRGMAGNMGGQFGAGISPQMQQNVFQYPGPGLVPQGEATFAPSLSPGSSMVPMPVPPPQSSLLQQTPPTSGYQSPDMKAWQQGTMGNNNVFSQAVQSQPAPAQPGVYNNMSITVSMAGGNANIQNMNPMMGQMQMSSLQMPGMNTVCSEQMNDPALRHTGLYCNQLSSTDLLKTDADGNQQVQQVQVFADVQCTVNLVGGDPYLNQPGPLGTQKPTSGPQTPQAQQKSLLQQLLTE
T2 sequence (P42226 with tags, fused parts or gaps): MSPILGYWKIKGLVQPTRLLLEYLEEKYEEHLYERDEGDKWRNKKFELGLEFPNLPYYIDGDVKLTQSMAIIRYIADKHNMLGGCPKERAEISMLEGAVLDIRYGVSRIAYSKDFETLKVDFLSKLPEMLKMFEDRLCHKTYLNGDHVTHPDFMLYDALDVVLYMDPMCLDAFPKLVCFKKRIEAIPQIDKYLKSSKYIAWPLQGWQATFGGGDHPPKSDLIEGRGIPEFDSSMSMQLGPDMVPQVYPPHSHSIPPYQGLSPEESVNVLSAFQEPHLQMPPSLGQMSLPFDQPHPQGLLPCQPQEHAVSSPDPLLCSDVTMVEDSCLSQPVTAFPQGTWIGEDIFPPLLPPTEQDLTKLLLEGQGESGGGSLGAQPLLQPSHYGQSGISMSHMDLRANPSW

Molecule: peptide 1: peptide derived from the STAT6 trans-activation domain, amino acid 794 to 814, SEQ ID NO: 6, contains LXXLL motif (LLPPTEQDLTKLLLEGQGESG; Part of SEQ ID 5; listed as Homo sapiens)
- binding of GST-STAT6-TAD with NCoA-1 in presence of peptide [1]: less binding

Molecule: peptide 2: peptide derived from the STAT6 trans-activation domain, amino acid 817 to 830 (SLGAQPLLQPSHYG; UniProt P42226 817-830, looked up, fragment)
- binding of GST-STAT6-TAD with NCoA-1 in presence of peptide [1]: does not alter the binding capacity of GST-STAT6-TAD with NCoA-1 significantly

Molecule: peptide 3: peptide derived from the STAT6 trans-activation domain, amino acid 830 to 847 (GQSGISMSHMDLRANPSW; UniProt P42226 830-847, looked up, fragment)
- binding of GST-STAT6-TAD with NCoA-1 in presence of peptide [1]: does not alter the binding capacity of GST-STAT6-TAD with NCoA-1 significantly

B1: His-NCoA-1: His-tagged NCoA-1 fragment aa 212-463, expressed in E. coli, affinity purified, SEQ ID NO: 3 (protein)
chain: MHHHHHHSSGLVPRGSGMKETAAAKFERQHMDSPDLGTDDDDKAMGYLWIQEACQRYEVMQCFTVSQPKSIQEDGEDFQSCLICIARRLPRPPAITGVESFMTKQDTTGKIISIDTSSLRAAGRTGWEDLVRKCIYAFFQPQGREPSYARQLFQEVMTRGTASSPSYRFILNDGTMLSAHTKCKLCYPQSPDMQPFIMGIHIIDREHSGLSPQDDSNSGMSIPRINPSVNPGISPAHGVTRSSTLPPSNNNMVSARVNRQQSSDLNSSSSHTNSSNNQGNFGCSPGNQIVANVALNQGQAGSLEHHHHHH
modifications: His tag
- Extinction 493 nm [2]: 0.795
